Reference: article PMC8575775, “Structural basis of the interaction between SETD2 methyltransferase and hnRNP L paralogs for governing co-transcriptional splicing” (Nature Communications, 2021)
Values joined by “and” are separate entries in the source; they are usually repeats but may differ in a detail not shown here. Equal values may be shown once. Ends that are not written are not given here.

Assays:
hnRNP L RRM2 = target: T1, hnRNP L RRM2 (Homo sapiens, UniProt P14866); experiment: ITC of SETD2 peptides with hnRNP L RRM2; assay type: binding; conditions: ITC 20 °C, N.D. = No detectable interaction under the experiment conditions
T1 construct: made in house; host or cells: Escherichia coli BL21 (DE3)
T1 sequence (P14866 189-286): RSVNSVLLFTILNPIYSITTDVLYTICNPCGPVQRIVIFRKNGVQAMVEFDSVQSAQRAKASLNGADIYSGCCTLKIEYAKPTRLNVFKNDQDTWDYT
Description: (§1) The hnRNP L_RRM2 fragment (residues189-286) was amplified from the human brain cDNA library and cloned into a modified pET28a (Novagen) vector without a thrombin protease cleavage site (termed p28a). All the mutants were generated using a MutantBEST kit (Takara) and verified via DNA sequencing. All the proteins were expressed in Escherichia coli BL21 (DE3) cells. The cells were cultured at 37 °C in LB medium, until the OD600 reached about 0.8. Then the proteins were induced with 0.2 mM isopropyl β-D-1-thiogalactopyranoside (IPTG). After induction at 16 °C for 24 h, the cells were harvested and lysed by sonication in buffer A (20 mM Tris-HCl, pH 7.8, 1 M NaCl). Proteins were first purified by Ni-NTA agarose beads and further purified by size-exclusion chromatography on a Hiload 16/60 Superdex 75 column (GE Healthcare) in buffer A. Purified proteins were dialyzed with Buffer B (20 mM Tris-HCl pH 7.8, 150 mM NaCl) and concentrated for subsequent analysis.
(§2) Isothermal titration calorimetry (ITC) assays were performed at 20 °C by using a Microcal PEAQ-ITC instrument (Malvern). We conducted the ITC experiments using SETD2 peptides for titration into hnRNP L and hnRNP LL proteins. […] The integrated heat data were analyzed using a one-site binding model by MicroCal PEAQ 1.0.0.1259-ITC Analysis Software provided by the manufacturer.

hnRNP L Y257A = target: T2, hnRNP L Y257A (Homo sapiens, UniProt P14866, Y257A); experiment: ITC with hnRNP L RRM2 Y257A mutant; assay type: binding; conditions: ITC 20 °C; N.D. = No detectable interaction under the experiment conditions
T2 construct: made in house; host or cells: Escherichia coli BL21 (DE3)
T2 sequence (P14866 189-286 Y257A): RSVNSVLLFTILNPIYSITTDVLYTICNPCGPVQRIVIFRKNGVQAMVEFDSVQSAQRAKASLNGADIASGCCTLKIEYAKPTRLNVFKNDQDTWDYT
Description: as §1, §2

PTB RRM2 (PTB1) = target: T3, PTB RRM2 (PTB1) (Homo sapiens, UniProt P26599); experiment: ITC with PTB RRM2; assay type: binding; conditions: ITC 20 °C; N.D. = No detectable interaction under the experiment conditions
T3 construct: made in house; host or cells: Escherichia coli BL21 (DE3)

[1] = target: T4, hnRNP L RRM2 (residues 189-286) (human); experiment: ITC; SETD2 peptide (about 600 µM, syringe) titrated into the protein (about 50 µM, sample pool); 20 °C; MicroCal PEAQ-ITC; one-site binding model; three independent titrations; conditions: both partners purified
T4 construct: heterogeneous nuclear ribonucleoprotein L, human, RRM2 fragment residues 189-286; also called hnRNP L^WT; source: E. coli BL21 (DE3), purified (Ni-NTA, size-exclusion chromatography)
T4 chain: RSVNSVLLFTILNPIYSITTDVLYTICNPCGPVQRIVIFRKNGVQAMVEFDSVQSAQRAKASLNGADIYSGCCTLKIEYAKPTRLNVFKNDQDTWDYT

hnRNP LL RRM2 [2] = target: T5, hnRNP LL RRM2 (human, UniProt Q8WVV9 166-268); experiment: as above; conditions: both partners purified
T5 construct: heterogeneous nuclear ribonucleoprotein L-like, human, RRM2 domain; also called hnRNP LL^WT; source: E. coli BL21 (DE3), purified (Ni-NTA, size-exclusion chromatography)
T5 sequence: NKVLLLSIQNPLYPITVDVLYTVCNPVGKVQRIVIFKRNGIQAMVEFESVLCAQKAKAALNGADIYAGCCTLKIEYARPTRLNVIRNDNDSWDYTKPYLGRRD

hnRNP L^V210A RRM2 = target: T6, hnRNP L^V210A RRM2 (human, UniProt P14866 189-286, V210A); experiment: as above; conditions: both partners purified
T6 construct: heterogeneous nuclear ribonucleoprotein L, human, RRM2 fragment residues 189-286 as Dm1, with V210A; source: E. coli BL21 (DE3), purified (Ni-NTA, size-exclusion chromatography)
T6 sequence (looked up): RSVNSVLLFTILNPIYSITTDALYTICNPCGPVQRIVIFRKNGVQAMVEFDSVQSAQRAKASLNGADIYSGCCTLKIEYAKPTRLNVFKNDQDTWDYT

hnRNP L^I214A RRM2 = target: T7, hnRNP L^I214A RRM2 (human, UniProt P14866 189-286, I214A); experiment: as above; conditions: both partners purified
T7 construct: heterogeneous nuclear ribonucleoprotein L, human, RRM2 fragment residues 189-286 as Dm1, with I214A; source: E. coli BL21 (DE3), purified (Ni-NTA, size-exclusion chromatography)
T7 sequence (looked up): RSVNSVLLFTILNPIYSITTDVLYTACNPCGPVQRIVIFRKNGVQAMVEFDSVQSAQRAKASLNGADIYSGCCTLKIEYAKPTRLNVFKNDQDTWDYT

hnRNP L^I256A RRM2 = target: T8, hnRNP L^I256A RRM2 (human, UniProt P14866 189-286, I256A); experiment: as above; conditions: both partners purified
T8 construct: heterogeneous nuclear ribonucleoprotein L, human, RRM2 fragment residues 189-286 as Dm1, with I256A; source: E. coli BL21 (DE3), purified (Ni-NTA, size-exclusion chromatography)
T8 sequence (looked up): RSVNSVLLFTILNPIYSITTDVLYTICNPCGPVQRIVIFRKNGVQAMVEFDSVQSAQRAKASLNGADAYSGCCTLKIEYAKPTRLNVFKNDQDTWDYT

hnRNP L^L263A RRM2 [3] = target: T9, hnRNP L^L263A RRM2 (human, UniProt P14866 189-286, L263A); experiment: as above; conditions: both partners purified
T9 construct: heterogeneous nuclear ribonucleoprotein L, human, RRM2 fragment residues 189-286 as Dm1, with L263A; source: E. coli BL21 (DE3), purified (Ni-NTA, size-exclusion chromatography)
T9 sequence (looked up): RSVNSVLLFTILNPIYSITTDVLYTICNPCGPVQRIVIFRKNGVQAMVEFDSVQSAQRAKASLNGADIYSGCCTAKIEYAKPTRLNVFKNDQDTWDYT

hnRNP LL^V188I RRM2 = target: T10, hnRNP LL^V188I RRM2 (human, UniProt Q8WVV9 166-268, V188I); experiment: as above; conditions: both partners purified
T10 construct: heterogeneous nuclear ribonucleoprotein L-like, human, RRM2 domain as Dm4, with V188I; source: E. coli BL21 (DE3), purified (Ni-NTA, size-exclusion chromatography)
T10 sequence: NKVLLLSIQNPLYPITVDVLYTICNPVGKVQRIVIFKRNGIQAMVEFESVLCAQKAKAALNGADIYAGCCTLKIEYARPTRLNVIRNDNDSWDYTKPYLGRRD

hnRNP L^L263A RRM2 [4] = target: T9, hnRNP L^L263A RRM2; experiment: as above; conditions: both partners purified; remark: listed apart in the source
[5] = target: T11, hnRNP L RRM2 (residues 189-286) (human, UniProt P14866 189-286); experiment: ITC; SETD2 peptides (about 600 µM, syringe) titrated into hnRNP L / hnRNP LL proteins (about 50 µM, cell); 20 °C; Microcal PEAQ-ITC; one-site binding model; mean of three independent experiments; conditions: both partners purified
T11 construct: hnRNP L, human, RRM2 fragment, residues 189-286, amplified from a human brain cDNA library; Cloned into a modified pET28a vector without a thrombin cleavage site (p28a); also called hnRNP L RRM2 WT; source: E. coli BL21 (DE3), purified (Ni-NTA, size-exclusion chromatography)
T11 sequence (looked up): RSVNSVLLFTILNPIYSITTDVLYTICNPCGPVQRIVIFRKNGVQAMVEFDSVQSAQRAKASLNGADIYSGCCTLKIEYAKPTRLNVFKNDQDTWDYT

hnRNP LL RRM2 [6] = target: T12, hnRNP LL RRM2 (human, UniProt Q8WVV9 166-268); experiment: as above; conditions: both partners purified
T12 construct: hnRNP LL, human, RRM2 domain; The methods describe only the cloning of hnRNP L RRM2; all proteins were expressed in E. coli; source: E. coli BL21 (DE3), purified (Ni-NTA, size-exclusion chromatography)
T12 sequence: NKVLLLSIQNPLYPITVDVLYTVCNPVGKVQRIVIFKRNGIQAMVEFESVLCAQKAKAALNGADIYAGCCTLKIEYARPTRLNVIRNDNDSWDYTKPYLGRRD

hnRNP L RRM2 I256A = target: T13, hnRNP L RRM2 I256A (human, UniProt P14866 189-286, I256A); experiment: as above; conditions: both partners purified
T13 construct: hnRNP L, human, RRM2 fragment 189-286 with I256A; source: E. coli BL21 (DE3), purified (Ni-NTA, size-exclusion chromatography)
T13 sequence (looked up): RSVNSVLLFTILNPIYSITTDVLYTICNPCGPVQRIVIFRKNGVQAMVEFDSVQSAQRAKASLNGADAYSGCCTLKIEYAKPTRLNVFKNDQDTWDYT

T3 sequence (P26599 184-260 limits assumed): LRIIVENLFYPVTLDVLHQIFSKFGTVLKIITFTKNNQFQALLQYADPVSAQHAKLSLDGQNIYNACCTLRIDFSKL

SETD2^2113–2140: adjacent SETD2 fragment, residues 2113–2140, used as non-binding control in ITC (RNKLSTEERRKLFEQEVAQREAQKQQQQ)
KD / interaction detected by ITC, in words (hnRNP L RRM2): could not detect any interaction | KD / interaction detected by ITC, in words (hnRNP L RRM2; listed as SETD2^2113-2140): No Binding

YPPGYPMQAYVDPSNPNAGKVLLPTP [SETD2^2167–2192]
KD / interaction detected by ITC, in words (hnRNP L Y257A): completely abolished | KD / interaction detected by ITC, in words (PTB RRM2 (PTB1)): no detectable affinity

YPPGYPMQAYVDPSNPNAGKVLLPTP (peptide, UniProt Q9BYW2 2167-2192, looked up, source: synthetic peptide) [SETD2^2167-2192 peptide]
Kd [1]: 5.83 µM and 5.91 µM | stoichiometry N [1]: 0.93 and 0.92 | Kd (hnRNP LL RRM2 [2]): 8.58 µM and 8.04 µM and 8.19 µM | stoichiometry N (hnRNP LL RRM2 [2]): 0.95 and 1.04 | Kd (hnRNP L^V210A RRM2): 9.1 µM and 8.9 µM and 9.33 µM and 9.11 µM | stoichiometry N (hnRNP L^V210A RRM2): 0.93 and 0.78 and 1.13 | Kd (hnRNP L^I214A RRM2): 15.6 µM and 16.3 µM and 16.2 µM and 16 µM | stoichiometry N (hnRNP L^I214A RRM2): 1.01 and 1.05 and 1.18 | Kd (hnRNP L^I256A RRM2): 34.8 µM and 35.8 µM and 35 µM and 35.2 µM | stoichiometry N (hnRNP L^I256A RRM2): 1.3 and 1.31 and 1.18 | Kd (hnRNP L^L263A RRM2 [3]): 14.4 µM and 13.6 µM and 13.2 µM and 13.7 µM | stoichiometry N (hnRNP L^L263A RRM2 [3]): 0.85 and 0.98 and 0.93 | Kd (hnRNP LL^V188I RRM2): 6.16 µM and 6.44 µM and 6.3 µM | stoichiometry N (hnRNP LL^V188I RRM2): 1.1 and 0.96 and 1.12 | stoichiometry N (hnRNP L^L263A RRM2 [4]): 0.97

SNPNAGKVLLPTP (source: synthetic peptide) [SETD2^2180-2192 peptide]
Kd [1]: 11.4 µM and 11.8 µM and 11.5 µM | stoichiometry N [1]: 1.01 and 1 and 0.96 | Kd (hnRNP LL RRM2 [2]): 20.2 µM and 19.8 µM and 20.1 µM (2×) | stoichiometry N (hnRNP LL RRM2 [2]): 0.82 and 0.83 and 0.89

YPPGYPMQAYVDPSNPNAGKVLLPTP (peptide, UniProt Q9BYW2 2167-2192, looked up, source: synthetic peptide) [SETD2 2167–2192 peptide]
Kd [5]: 5.86 µM | stoichiometry N [5]: 0.93 | Kd (hnRNP LL RRM2 [6]): 8.27 µM | fold decrease in binding against wild-type hnRNP L RRM2 (hnRNP L RRM2 I256A): 9 fold

B1: SETD2 2180–2192 peptide (peptide)
peptide: SNPNAGKVLLPTP
notes: also called truncated peptide; source: synthetic peptide
Kd [5]: 11.6 µM
